According to the nanobody polyreactivity screen of Harvey et al. (2022):

Assay: yeast display, Sf9 membrane polyspecificity reagent, FACS + sequencing; frameworks hold sequencing errors
Outline: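 In a synthetic yeast display library (Saccharomyces cerevisiae BJ5465), nanobody expression was induced with galactose for 36–48 hours. FACS gates were set low and high (top ~1%) using anti-HA fluorescence for expression and streptavidin fluorescence for binding of the Sf9 membrane reagent. Each polyreactivity label is drawn from the gate of origin.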

QVQLLESGGGLVHAGGSLRLSCAASGSIFPYYAMGWYRQAPGKERELVAAISDSGDSTYYADSVKGRFTISRDNAKNTVYLQMNSLKPEDTAVYYCNADSRTDYHPHGTMVGPDREYWGQGTQVTVSS
polyreactivity (PSR sort gate): low polyreactivity

QVQLVESAGGLVQAGGILRLSCAASGRIFTRNAMGWYRQAPGKERELVAAISSSSGSKYYADSVKGRFTISRDNAKNTVYLQMNSLKPEDTAVYYCAARSYYYSWGYDHWGQGTQVTVSS
polyreactivity (PSR sort gate): high polyreactivity

QVQLVESGGGLVQAGGSLRLSCAASGRIFRYYAMGWYRQAPGKERELVATISGRGGSTYYADSVKGRFTISRDNAKNTVYLQMNSLKPEDTAVYYCNTVSTRYIYDYWGQGTQVTVSS
polyreactivity (PSR sort gate): high polyreactivity

QVQHVESGGGLVQAGASLRLSCAASGLTFRSNAMGWYSQAPGKERELVAAISSSGGSTYYADSVKGRFTISRDNAQNTVYLQMNSLKPEDTAVYYCAAEDPGDQYDYWGQGTQVTVSS
polyreactivity (PSR sort gate): high polyreactivity

QVQLVESGGGLVQAGGSLRLSCAASGSIFARYAMGWYRQAPGKERELVAAINSTVSTNYADSVKGRFTISRDNAKNTVYLQMNSLKPEDTAVYYCAVDIVRGGRDSWGQGTLVTVSS
polyreactivity (PSR sort gate): low polyreactivity

QVQLVESGGGLVQAGGSLRLSCAASARIVRKYTMGWFRQAPGKERELVAAISRNGGDTYYADSVKGRFTISRDNAKNTVYLQMHSLKPEDTAVYYCNARTPTDSTHFDYWGQGTQVTVSS
polyreactivity (PSR sort gate): low polyreactivity

QVQLVESGGGLVQAGGSLRLSCAASGFTFRYYAMGWYRQAPGKERELVAAIDWSGGSTYYADSVKGRFTISRDNAKNTVYLQMNSLKPEDTAVYYCNAVLVPREYYSWGQGTQVTVSS
polyreactivity (PSR sort gate): low polyreactivity

QVQLVESGGGLVQAGGSLRLSCAASGLTFPYYAMGWYRQAPGTERELVAVITTSTGTTYYADSVKGRFTMSRDNAKNTVYLQMNSLKPEDTAVYYCATDTGAYWFSLYDYWGQGTQVTVSS
polyreactivity (PSR sort gate): low polyreactivity

QVQLVESGGGLVQAGGSLRLSCAASGRTFRRNAMGWYRQAPGKERELVAPISRGGSTNYADSVKGRFSISRDNAKNTVYLQMNSMKPEDTAVFYCAARYYYRYNYWGQGTQVTVSS
polyreactivity (PSR sort gate): high polyreactivity

QVQLVESGGGLVQAGGSLRLSCAASGLTSVYNAMGWYRQAPGKERELVAAISWRGGRTYYADSVKGRFTISRDNAKNTVYLQMNSLKPEDTAVYYCARGYYTRPYYNPVFGYNYWGQGTQVTVSS
polyreactivity (PSR sort gate): high polyreactivity

QVQLVESGGGLVQAGGSLRLSCAASGSTFDYNAMGWYRQAPGTERELVAAISRGGNTYYADSVKGRFTISRDNAKNTVYLQMNSLKPEDTAVYYCAKDSYGSYRFVRKRQKAYGYWGQGTQVTVSS
polyreactivity (PSR sort gate): low polyreactivity

QVQLVESGGGLVQAGGSLRLSCAASGLIFSVNAMGWYRQAPGKERELVAAITWSSGRTYYADSVKGRFTISRDNAKNSVYLQMISLKPEDTAVYYCAGVSYWYGLMYYWGQGTQVTVSS
polyreactivity (PSR sort gate): high polyreactivity

QVQHVESGGGLVQAGGSLRLSCGASGRIFRRYAMGWYSLAAVKEREFVAAISYGGGSTYYADSVKGRFTISRDNAKNTVYLQMNSLKPEDSAVYYCNADVPKSLLLYYPWGYGYWGQGTQVTVSS
polyreactivity (PSR sort gate): low polyreactivity

QVQLVESGGGLVQAGGSLRLSCAASGITFGYYAMGWSRQAAGKEWELVAAISSGGGTYYADSVKGRFTISRDNAKNTVYLQMNSLKPEDTAVYYCNVLRLYPSMDYWGHGTQVTVSS
polyreactivity (PSR sort gate): high polyreactivity

QVQLVESWGGLVQARGRLRLSFAASGSTYQNAMRCYRQAPGKEREFVAAISWSGGSTYYGDSVKGRFTISRDNAKNTVYLQMNSLKPEDTAVYYCAAYSYFSPWYDYWGQGTQVTVSS
polyreactivity (PSR sort gate): high polyreactivity

QVQLVESGGGLVQAGGSLRLSCAASGFTISVYAMGWYRQAPGKERELVAAISWNGGRTYYAVSVKGRFTISRDNAKNTVYLQMNSLKPEDSAVYYCNKVSGYDVDYWGQGTQVTVSS
polyreactivity (PSR sort gate): high polyreactivity

QVQLVESGGGLVQAGGSLRLSCAASGSTLKYNAMGWYRQAPGKEREFVASITLSACRTYYADSVKGRFTISRDNAKNTVYLQMNSLKPEDTAVYYCAARRYFSYRYDYWGQGTQVTVSS
polyreactivity (PSR sort gate): high polyreactivity

QDQLVESGGGLVQAGGSLRLSCAASGRTFHSYVMGWYRQAPGKERELVAAISRSGGNTYYADSVKGRFTISRDNAKNTVYLQMNSLKPEDTAVYYCAAALSAYVKWDYYYWGQGTQVTVSS
polyreactivity (PSR sort gate): low polyreactivity

QVQLQESGGVLVQAGGSLRLSCAARGYISLAQTIGWYRQAPGKEREFVASIALGSSTYYTDSEKGSFTISRDNAKTTVYLQMNSLKPEDTAVYYCAARVGASYAHDYWGQGTEVTVSS
polyreactivity (PSR sort gate): low polyreactivity

QVHLVESGGGLVQAGGSLRLSCAASGFTFDYYTMGWYRPAPGKERELVAAITSSAGSTDYADSVKGRFTISRDNAKNTVYLQMNSLKPEDTAVYYCNADFLYGTYDYWGQGTQVTVSS
polyreactivity (PSR sort gate): low polyreactivity

QVQLVESGGGLVQAGGSLRLSCAASRLTFSYYAMGWYRQAPGKERELVAAISERGGSTYYADSVKGRFTISRDNAKNTVYLQMNSLKPEDTAVYYCAADFVYGTRDDSWGQGTQVTVSS
polyreactivity (PSR sort gate): high polyreactivity

QVQLVESGRGLVQAGGTLRLSCAASGSIFGYYAMGWYRQAPGKERELVASISGSGGTTYYADSVKGRFTISRDNAKNTVYLQMNSLNPEDTAVYYCAARRSIYGYPFVTSRRGYWGQGTQVTVSS
polyreactivity (PSR sort gate): high polyreactivity

QVQLVESGGGLVQAGGSLRLSCAASGRIFGYYAMGWYRQAPGKERELVAAISWTGASTYYADSVKGRFTISRDNAKNTVYLQMNSLKPEDTAVYYCAVDRGLDYYWGQGTQVTVSS
polyreactivity (PSR sort gate): high polyreactivity

QVQLVESGGGLVQAGGSLRLSCAASGRIFSRYAMGWYRQAPGKEREMVAAIRSNGGRTYYADSVKGRFTISRDNAKNTVYLQMNSLKPEDTAVYYCAAAGGGKVSYRDYDYWGQGTQVTVSS
polyreactivity (PSR sort gate): high polyreactivity

QVQLVESGGGLVQAGGSLRLSCAASGRIFWYYAMGWSRQAPGKERELVATISYGGGNTYYADSVKGRFTISRDNAKNTVYLQMNSLKPEDTAVYYCARVPYAYLPYKPFQQYSYDYWGQGTQVTVSS
polyreactivity (PSR sort gate): high polyreactivity

QVQLVESGGGLVQAGGSLRLSCAASGFTFKENTIGRYRQAPGKEMELVAAMSWSGGGTYYADSVKGRFTISRDNGKNTVYLQMNSLKPEDTAVYYCAALQRRDHNGDYWGQGTQVTVSS
polyreactivity (PSR sort gate): low polyreactivity

QVQLVESGGGLDQAGGSLRLSCAASGRIFTANVMGWYRQAPGKERELVAAIDYSGGSTYYADSVKGRFTISRDNAKNTVYLQMNSLKPEDTAVYSCNRDDYADYYHLEYDYWGQGTQVTVSS
polyreactivity (PSR sort gate): low polyreactivity

QVQLVESGGGLVQAGGSLRLICAASGSTLKYYAMGWYRQAPGKERELVARITRSSGSTYYADSVKGRFTISRDNAKNTVYLQMNSLKPEDTAVYYCNAYGRFGLYDYWGQGTQVTVSS
polyreactivity (PSR sort gate): high polyreactivity

QVQLVESGGGLVQAGGSLRLSCAASGSTFDINTMGWYRQAPGKEREFVAAITDSDDSTYYADSVKGRFTISRDNAKNTVYLQMNSLKPEDTAVYYCNYDYWGQGTQVTVSS
polyreactivity (PSR sort gate): low polyreactivity

QVQLVESGGGLVQAGGSLRLSCAASGRIFGWYAMGWYRQAPGKEWELVAAITSGSRTSYADSVKGRFTISRDNAKNTDYLQMNSLNPEDTAVYYCARRSYGIYYRSADDSWGQGTQVTGSS
polyreactivity (PSR sort gate): high polyreactivity

QVQLVESGGGLVQAGGSLRLSCAASGSTFDKYTMGWYRQAPGKERELVATISRSGTSTNYADSVKGRFTISRDNAKNTVYLQLNSLKPEDTAVYYCAAVMRWRDLFSEYYYWGQGTQVTVSS
polyreactivity (PSR sort gate): high polyreactivity

QVQLVDSGGGLVQAGGSLRLSCAASGRIFGSYVMGWYRQAPGKERELVAAITDGGTTYADSVKGRFTISRDNAKNTVYLQMNSLKPEDTAVYYCAADLYDWPLAWWEYYYWGQGTHVTVSS
polyreactivity (PSR sort gate): low polyreactivity
